Measured values taken from paper PMC3319578, “Talin Contains A C-Terminal Calpain2 Cleavage Site Important In Focal Adhesion Dynamics” (PLoS ONE, 2012).

Biological target: the molecule itself
Assay: SEC; analytical gel filtration, Superdex-75 (10/300), room temperature, 20 mM Tris pH 8.0, 150 mM NaCl, 2 mM DTT, 0.8 ml/min

Row | Protein | stoichiometry N
1 | talin1 2300–2541 polypeptide (C-terminal actin-binding site and dimerisation domain), wild type (domain or fragment, mouse, UniProt P26039 2300-2541, looked up, Cloned into pET-151/D-TOPO; dimer by gel filtration; also called talin 2300–2541; ABS-DD; source: E. coli, purified (Ni-NTA, TEV cleavage, Resource-Q)) DPTVIAENELLGAAAAIEAAAKKLEQLKPRAKPKEADESLNFEEQILEAAKSIAAATSALVKAASAAQRELVAQGKVGAIPANALDDGQWSQGLISAARMVAAATNNLCEAANAAVQGHASQEKLISSAKQVAASTAQLLVACKVKADQDSEAMKRLQAAGNAVKRASDNLVKAAQKAAAFEDQENETVVVKEKMVGGIAQIIAAQEEMLRKERELEEARKKLAQIRQQQYKFLPSELRDEH | 2
2 | talin1 2300–2541 E2492G mutant (domain or fragment, mouse, UniProt P26039 2300-2541, looked up, talin1, mouse, residues 2300–2541 with E2492G; Dimer by gel filtration; also called E2494G (as printed once in the text); source: E. coli, purified (Ni-NTA, TEV cleavage, Resource-Q)) DPTVIAENELLGAAAAIEAAAKKLEQLKPRAKPKEADESLNFEEQILEAAKSIAAATSALVKAASAAQRELVAQGKVGAIPANALDDGQWSQGLISAARMVAAATNNLCEAANAAVQGHASQEKLISSAKQVAASTAQLLVACKVKADQDSEAMKRLQAAGNAVKRASDNLVKAAQKAAAFEDQENETVVVKGKMVGGIAQIIAAQEEMLRKERELEEARKKLAQIRQQQYKFLPSELRDEH | 2
